US20260049105A1, “SELECTIVE MC4R LIGAND FOR TREATING OBESITY AND COGNITIVE LOSS” (ARIZONA BOARD OF REGENTS ON BEHALF OF THE UNIVERSITY OF …, priority 2022, published 2026)

Molecular target: human melanocortin 4 receptor (human), P32245
Assay: competition with 125I-NDP-α-MSH on whole HEK293 cells expressing hMC4R
Details: remark: other sources report otherwise

Sequence of human melanocortin 4 receptor (human), P32245 (P32245 whole entry): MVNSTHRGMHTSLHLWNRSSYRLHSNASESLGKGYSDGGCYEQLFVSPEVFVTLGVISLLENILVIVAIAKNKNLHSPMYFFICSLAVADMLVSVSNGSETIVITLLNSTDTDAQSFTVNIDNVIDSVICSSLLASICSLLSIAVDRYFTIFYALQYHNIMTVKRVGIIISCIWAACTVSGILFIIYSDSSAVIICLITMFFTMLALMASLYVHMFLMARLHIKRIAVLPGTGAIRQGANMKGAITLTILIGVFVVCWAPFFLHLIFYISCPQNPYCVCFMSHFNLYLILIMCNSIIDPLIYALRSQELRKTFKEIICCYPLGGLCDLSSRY

B1: Ac-Arg-cyclo[Asp-Pip-D-Phe(4-F)-βArg-Trp-Lys]-NH2 (peptide)
peptide: RDXFRWK
modifications: not fully specified; here or on the partner: N-terminal acetyl (Ac); C-terminal amide (NH2); cyclized through the side chains of Asp2 and Lys7; Pip at 3; D-Phe(4-F) at 4; βArg at 5
- BE% (percent [125I]NDP-α-MSH displacement at 10 µM): 23%
